Data published in article PMC2873993, “Comparative Therapeutic Effects of Velaglucerase Alfa and Imiglucerase in a Gaucher Disease Mouse Model” (PLoS ONE, 2010).

What was measured:
[1] = GCase activity assay with NBD-GC substrate; assay type: biochemical; settings: mean ± SE, n = 10
Experimental: (§1) Vela and Imig were compared for kinetic properties as described. Briefly, the standard GCase activity assay contained final concentrations of 50 mM citrate/phosphate, pH 5.5, 0.25% TC, 0.25% TX, and 4 mM 4MU-Glc in 200 µl. The reactions were stopped after incubation (30–60 min, 37°C) using 0.9 M ethylenediamine, pH 11.0 (100 µl). Standard curves for 4-MU fluorescence yield were generated for each assay with Ex/Em 460/515 nm (Molecular Dynamics SpectraMax GeminXS spectrofluorometer). […] For the reversible competitive inhibitors, Ki was calculated from IC50 = Ki (1+ [I]/[Km]). The IC50 or Ki values for various inhibitors (dNM and its derivatives, CBE, CS, IFG, DNPFG) were determined using 4MU-Glc as substrate. Activities with the NBD-GC substrate were as described. Enzyme assays with saposin C (0–500 nM/0.5 µM BPS) and BPS (0–2 µM) were as described, [40]. Saposin C was expressed in E. coli and purified as described. […] Protease susceptibilities of the two GCases were evaluated by cathepsin D (1–2 µM) digestion in 25 mM sodium acetate, pH 4.8, 50 mM NaCl, 1.25 mM EDTA, 1.25 mM DTT using 200 ng of Vela or Imig at 37°C for 4 h. […] The amounts of intact enzyme were determined from density measurements on immunoblots and were compared to the initial amounts. […]

[2] = Quantification of functional active sites with single turnover substrate DNPFG; assay type: biochemical; settings: for Active sites, 2,4-DNPFG: mole ratio of 2,4-DNP released and enzyme protein, mean ± SE, n = 8
Experimental: Catalytic activities of Vela and Imig were analyzed with 4MU-Glc and GC substrates. Vela had ∼6–10% reproducibly greater activity compared to Imig (Table 1). The functional active sites of these two enzymes were quantified using the single turnover substrate DNPFG, and consistent with the hydrolytic activity, ∼5–7% more functional active sites were quantified with Vela than with Imig (Table 1).
Vela and Imig were compared for kinetic properties as described. Briefly, the standard GCase activity assay contained final concentrations of 50 mM citrate/phosphate, pH 5.5, 0.25% TC, 0.25% TX, and 4 mM 4MU-Glc in 200 µl. The reactions were stopped after incubation (30–60 min, 37°C) using 0.9 M ethylenediamine, pH 11.0 (100 µl). Standard curves for 4-MU fluorescence yield were generated for each assay with Ex/Em 460/515 nm (Molecular Dynamics SpectraMax GeminXS spectrofluorometer). […] For the reversible competitive inhibitors, Ki was calculated from IC50 = Ki (1+ [I]/[Km]). The IC50 or Ki values for various inhibitors (dNM and its derivatives, CBE, CS, IFG, DNPFG) were determined using 4MU-Glc as substrate. Activities with the NBD-GC substrate were as described. Enzyme assays with saposin C (0–500 nM/0.5 µM BPS) and BPS (0–2 µM) were as described, [40]. Saposin C was expressed in E. coli and purified as described. For thermostability assessments, equal amounts of Vela and Imig activities were added to 50 mM citrate/phosphate, pH 7.4, with or without human/mouse serum, and incubated for 0–240 min at 25 or 37°C. The pH optimum profiles were developed using 50 mM citrate/phosphate, pH 4.4–7.2. Protease susceptibilities of the two GCases were evaluated by cathepsin D (1–2 µM) digestion in 25 mM sodium acetate, pH 4.8, 50 mM NaCl, 1.25 mM EDTA, 1.25 mM DTT using 200 ng of Vela or Imig at 37°C for 4 h. All assays were conducted in triplicate and repeated at least twice. The amounts of intact enzyme were determined from density measurements on immunoblots and were compared to the initial amounts. […]

[3] = pH- and thermostability of enzyme activity in buffer or serum; assay type: physicochemical; settings: for irreversible loss of activity by 2 h / loss of activity by 4 h: pH 7.4, citrate/phosphate buffer or mouse or human serum, 37 or 25°C
Experimental: (§2) Vela and Imig were compared for kinetic properties as described. Briefly, the standard GCase activity assay contained final concentrations of 50 mM citrate/phosphate, pH 5.5, 0.25% TC, 0.25% TX, and 4 mM 4MU-Glc in 200 µl. The reactions were stopped after incubation (30–60 min, 37°C) using 0.9 M ethylenediamine, pH 11.0 (100 µl). Standard curves for 4-MU fluorescence yield were generated for each assay with Ex/Em 460/515 nm (Molecular Dynamics SpectraMax GeminXS spectrofluorometer). […] For the reversible competitive inhibitors, Ki was calculated from IC50 = Ki (1+ [I]/[Km]). The IC50 or Ki values for various inhibitors (dNM and its derivatives, CBE, CS, IFG, DNPFG) were determined using 4MU-Glc as substrate. Activities with the NBD-GC substrate were as described. Enzyme assays with saposin C (0–500 nM/0.5 µM BPS) and BPS (0–2 µM) were as described, [40]. Saposin C was expressed in E. coli and purified as described. For thermostability assessments, equal amounts of Vela and Imig activities were added to 50 mM citrate/phosphate, pH 7.4, with or without human/mouse serum, and incubated for 0–240 min at 25 or 37°C. The pH optimum profiles were developed using 50 mM citrate/phosphate, pH 4.4–7.2. Protease susceptibilities of the two GCases were evaluated by cathepsin D (1–2 µM) digestion in 25 mM sodium acetate, pH 4.8, 50 mM NaCl, 1.25 mM EDTA, 1.25 mM DTT using 200 ng of Vela or Imig at 37°C for 4 h. All assays were conducted in triplicate and repeated at least twice. The amounts of intact enzyme were determined from density measurements on immunoblots and were compared to the initial amounts. The ratios of intact enzyme with and without cathepsin D were used as indicators of the enzyme's proteolytic susceptibility.

[4] = test system: cathepsin D; experiment: Protease susceptibility to cathepsin D digestion; assay type: biochemical; settings: for degradation by cathepsin D after 4 h: cathepsin D 1 µg/ml; for degradation by cathepsin D within 4 h: cathepsin D 2 µg/ml
Experimental: as §2, with “Protease susceptibilities of the two GCases were evaluated by cathepsin D (1–2 µM) digestion in 25 mM sodium acetate, pH 4.8, 50 mM NaCl, 1.25 mM EDTA, 1.25 mM DTT using 200 ng of Vela or Imig at 37°C for 4 h.” left out

[5] = pH optimum profile of GCase activity; assay type: biochemical; settings: profile pH 4.4–7.2
Experimental: as §1

[6] = test system: 9 V/null mice; experiment: GC levels in liver, spleen and lung after weekly enzyme injections; assay type: in vivo, mouse; settings: for GC lipid levels in lung: 5 and 15 U/kg/wk; for reduction of GC levels in liver: 15 U/kg/wk (before 8 wks); for decrease of GC in lung (suggested trend): variable; for reduction of GC levels in spleen: all three dosing groups; for reduction of GC levels and storage cell numbers in livers / reduction of GC levels and storage cell numbers in spleens: dose dependent, 5, 15 or 60 U/kg/wk, abstract
From the text: Mice were sacrificed one week after the last injection, and sera and organs were collected for serologic studies, GCase activities, GC levels, and quantification of storage cells. At one week after the last injection, the GCase activities in liver, spleen, and lung had returned to background levels (not shown).
(§3) Mice were anesthetized with isoflurane.
GC levels in liver, lung, and spleen from 9 V/null and WT mice were quantified by LC/MS-MS (Lipidomic Core, University of South Carolina). The GC levels were normalized to protein in the same lysates used for GCase activity and expressed as the percentage change relative to the GC levels of matched samples from saline-injected mice. WT lysates were used as a reference. The Student's t-test was used for statistical comparisons.

[7] = test system: 9 V/null mice; experiment: Injection-related deaths; assay type: in vivo, mouse; settings: 60 U/kg once a week for 8 weeks
Experimental: With additional injections, IgG positivity increased in all dosing groups and several mice died. With the 5 or 15 U/kg/wk doses only a few mice died, whereas with 60 U/kg/wk doses, 9/42 Vela-injected and 20/59 Imig-injected mice died following injections during the 4- to 8-wk period (Table 5). Prior to death, these mice became immobile and their lips/tails became cyanotic. Most mice died within 30 to 60 min post-injection. However, placing treated mice in an oxygen chamber for 20 to 30 min after injection led to the survival of most of the animals. The mice that succumbed were immediately dissected, and sera were analyzed for IgE titers and histology. […] Total serum IgE levels from these mice injected with Vela or Imig were 46.4 to 234.9 ng/ml (n = 3) or 115.8 to 239.6 ng/ml (n = 3), respectively (p = 0.3626). In comparison, saline-injected 9 V/null serum values were 6.8 to 8.8 ng/ml (n = 6) (Fig. 7B).
as §3

[8] = 5 or 15 U/kg/wk, week 4 or 8, compared to saline-injected controls

Row | Molecule | GCase activity, NBD-GC [1] | Active sites, 2,4-DNPFG [2] | t1/2 of GCase activity ([3]; 25°C + h-serum) | t1/2 of GCase activity ([3]; 25°C + m-serum) | t1/2 of GCase activity ([3]; 25°C in CP, pH 7.4) | t1/2 of GCase activity ([3]; 37°C + h-serum) | t1/2 of GCase activity ([3]; 37°C + m-serum) | t1/2 of GCase activity ([3]; 37°C in CP, pH 7.4) | irreversible loss of activity by 2 h [3] | loss of activity by 4 h [3] | degradation by cathepsin D after 4 h [4] | degradation by cathepsin D within 4 h [4] | pH of peak activity [5] | GC lipid levels in lung [6] | decrease of GC levels in liver [6, 8] | reduction of GC levels in liver [6] | decrease of GC in lung (suggested trend) ([6]; 60 U/kg/wk, 8 wks) | decrease of GC levels in liver ([6]; 60 U/kg/wk, week 4) | reduction of GC levels in spleen ([6]; 4 wks) | reduction of GC levels in spleen ([6]; 8 wks) | also measured
1 | velaglucerase alfa (protein, N-linked oligosaccharides with higher α-mannosyl content (predominant number of mannoses is 9)) ARPCIPKSFGYSSVVCVCNATYCDSFDPPTFPALGTFSRYESTRSGRRMELSMGPIQANHTGTGLLLTLQPEQKFQKVKGFGGAMTDAAALNILALSPPAQNLLLKSYFSEEGIGYNIIRVPMASCDFSIRTYTYADTPDDFQLHNFSLPEEDTKLKIPLIHRALQLAQRPVSLLASPWTSPTWLKTNGAVNGKGSLKGQPGDIYHQTWARYFVKFLDAYAEHKLQFWAVTAENEPSAGLLSGYPFQCLGFTPEHQRDFIARDLGPTLANSTHHNVRLLMLDDQRLLLPHWAKVVLTDPEAAKYVHGIAVHWYLDFLAPAKATLGETHRLFPNTMLFASEACVGSKFWEQSVRLGSWDRGMQYSHSIITNLLYHVVGWTDWNLALNPEGGPNWVRNFVDSPIIVDITKDTFYKQPMFYHLGHFSKFIPEGSQRVGLVASQKNDLDAVALMHPDGSAVVVVLNRSSKDVPLTIKDPAVGFLETISPGYSIHTYLWRRQ | 1,321,057±67,237 nmole/h/mg | 97.4±0.6% | 2.933 ± 0.0978 h | 3.235 ± 0.102 h | 1.977 ± 0.0318 h | 2.117 ± 0.169 h | 2.31 ± 0.0637 h | 1.82 ± 0.0025 h | > 50% | 70–85% | 72–76% | completely degraded | 5.4–5.6 | unchanged | 50–70% | ~66% | ~10% | ~85% | 10–15% | 20–30% | more functional active sites than Imig ([2]; DNPFG): 5–7%; reduction of GC levels and storage cell numbers in livers [6]: 60–95%; reduction of GC levels and storage cell numbers in spleens [6]: 10–30%; Death (%) of total injected mice ([7]; No-oxygen): 22.6%; Death, number of mice ([7]; No-oxygen): 7; Death (%) of total injected mice ([7]; Oxygen chamber minimum 20 min): 18.2%; Death, number of mice ([7]; Oxygen chamber minimum 20 min): 2; Death (%) of total injected mice ([7]; Total number): 21%; Death, number of mice ([7]; Total number): 9
2 | imiglucerase (protein, short N-linked oligosaccharide chains with ~3 exposed α-mannosyl residues) ARPCIPKSFGYSSVVCVCNATYCDSFDPPTFPALGTFSRYESTRSGRRMELSMGPIQANHTGTGLLLTLQPEQKFQKVKGFGGAMTDAAALNILALSPPAQNLLLKSYFSEEGIGYNIIRVPMASCDFSIRTYTYADTPDDFQLHNFSLPEEDTKLKIPLIHRALQLAQRPVSLLASPWTSPTWLKTNGAVNGKGSLKGQPGDIYHQTWARYFVKFLDAYAEHKLQFWAVTAENEPSAGLLSGYPFQCLGFTPEHQRDFIARDLGPTLANSTHHNVRLLMLDDQRLLLPHWAKVVLTDPEAAKYVHGIAVHWYLDFLAPAKATLGETHRLFPNTMLFASEACVGSKFWEQSVRLGSWDRGMQYSHSIITNLLYHVVGWTDWNLALNPEGGPNWVRNFVDSPIIVDITKDTFYKQPMFYHLGHFSKFIPEGSQRVGLVASQKNDLDAVALMHPDGSAVVVVLNRSSKDVPLTIKDPAVGFLETISPGYSIHTYLWHRQ | 1,191,610±56,390 nmole/h/mg | 91.6±2.2% | 3.107 ± 0.106 h | 3.587 ± 0.253 h | 2.04 ± 0.129 h | 2.125 ± 0.169 h | 2.455 ± 0.124 h | 1.858 ± 0.0413 h | > 50% | 70–85% | 72–76% | completely degraded | 5.4–5.6 | unchanged | 50–70% | ~55% | ~10% | ~70% | 10–15% | 20–30% | reduction of GC levels and storage cell numbers in livers [6]: 60–95%; reduction of GC levels and storage cell numbers in spleens [6]: 10–30%; Death (%) of total injected mice ([7]; No-oxygen): 48.4%; Death, number of mice ([7]; No-oxygen): 15; Death (%) of total injected mice ([7]; Oxygen chamber minimum 20 min): 17.9%; Death, number of mice ([7]; Oxygen chamber minimum 20 min): 5; Death (%) of total injected mice ([7]; Total number): 34%; Death, number of mice ([7]; Total number): 20
